Reference: paper PMC6138676, “Skeletal Muscle Dystrophy mutant of lamin A alters the structure and dynamics of the Ig fold domain” (Scientific Reports, 2018)

Biological target: the molecule itself
Test: SEC-MALS; 3 mg/ml protein; Superdex 200 Increase 10/300 equilibrated in 25 mM Tris-HCl pH 8.5, 250 mM NaCl; 20 °C; 30 µL injected, 0.6 mL/min

B1: Human lamin A Ig (428-552) (domain or fragment, UniProt P02545 428-552, looked up)
chain: SSFSQHARTSGRVAVEEVDEEGKFVRLRNKSNEDQSMGNWQIKRQNGDDPLLTYRFPPKFTLKAGQVVTIWAAGAGATHSPPTDLVWKAQNTWGCGNSLRTALINSTGEEVAMRKLVRSVTVVED
notes: Ig fold domain of human lamin A, residues 428-552, cloned into pQE-80L between BamHI and KpnI; For the NMR experiments the protein was 13C,15N-labelled; also called wild type Ig; Ig fold domain of lamin A; source: E. coli BL21 (DE3) pLysS, purified (His-Trap column)
Question: Which “stoichiometry N” value does the source give for B1 here?
Answer: 2
